Measured values published in paper doi:10.1101/2025.08.18.670960.

Target: UNC-119 tagged with the C-terminal fragment of Venus (C. elegans) (UniProt Q10658)
Test: split reporter (BiFC, NanoBiT); BiFC in AWC neurons of wild-type animals: VC::UNC-119 with ODR-3::VN variants; read-out is percent of transgenic animals with signal; free VN as negative control

UniProt Q10658, sequence (Q10658 whole entry, the tested form may be a part): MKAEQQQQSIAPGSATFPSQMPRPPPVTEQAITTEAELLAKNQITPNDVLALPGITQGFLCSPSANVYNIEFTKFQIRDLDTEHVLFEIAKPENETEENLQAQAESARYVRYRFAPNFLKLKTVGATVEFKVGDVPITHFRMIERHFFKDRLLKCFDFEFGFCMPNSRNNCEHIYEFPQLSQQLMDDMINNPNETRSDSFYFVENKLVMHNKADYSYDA

percent of transgenic animals with BiFC signal [%] | Substance
81 | ODR-3^WT tagged with the N-terminal Venus fragment (from UniProt Q18434 1-356) (natural protein)
51 | ODR-3^A328P tagged with the N-terminal Venus fragment (from UniProt Q18434 1-356) (natural protein)
